Results taken from the supplement of paper PMC7125110.
± gives the standard error. Fewer inactive variants are shown than the library holds.

B1: glmS ribozyme (parent)
chain: AUAAAAGCGCCAGAACUACAGAAAUGUAGUUGACGAGGAGGAGGUUUAUCGAAUUUUCGGCGGAUGCCUCCAAA

How the values were obtained:
Conditions in all cases: with glucosamine-6-phosphate
glucosamine-6-phosphate [1] = variants of: B1; assay: self-cleavage kobs at 640 uM GlcN6P; higher = faster cleavage; RNA array
Method in brief: (§1)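 Tiles of sequenced MiSeq chips were imaged over ~14 h at 37 °C. On them, barcoded ribozyme variants had been transcribed in situ by E. coli RNA polymerase and were tracked via a hybridised Cy3 probe while glucosamine-6-phosphate (40 μM to 10 mM) in HEPES/KCl/Mg(OAc)2 buffer flowed in. Per-tile medians, normalised to baseline and to non-cleaving reference variants, were fit to one- or two-exponential decays for kobs, and weighted Michaelis–Menten fits gave kcat and KM.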

glucosamine-6-phosphate [2] = variants of: B1; assay: self-cleavage kobs at 2500 uM GlcN6P; higher = faster cleavage; RNA array
Method in brief: as §1

glucosamine-6-phosphate [3] = variants of: B1; assay: self-cleavage kobs at 10000 uM GlcN6P; higher = faster cleavage; RNA array
Method in brief: as §1

Variant	self-cleavage kobs at 640 uM GlcN6P (glucosamine-6-phosphate [1]) [s⁻¹]	self-cleavage kobs at 2500 uM GlcN6P (glucosamine-6-phosphate [2]) [s⁻¹]	self-cleavage kobs at 10000 uM GlcN6P (glucosamine-6-phosphate [3]) [s⁻¹]
A14G A42G C67A	0.01 ± 0.0028	0.00856 ± 0.0041	–
A14C G41C G44C C50G	< 1e-05	–	–
C8U G37C A52G	< 1e-05	–	–
C10G G66U	< 1e-05	< 1e-05	< 1e-05
A14C C50U U54A	< 1e-05	< 1e-05	–
A14U G44U U69C C71A	< 1e-05	–	< 1e-05
A36G U45A C61U U69G C70A	< 1e-05	< 1e-05	–
G7U U46C U65A	< 1e-05	< 1e-05	–
G32A C50G	6.29e-05 ± 2.1e-05	–	2.9e-05 ± 1.4e-05
G35A G40U G43U G59A C67G	< 1e-05	< 1e-05	–
C8A C19A	< 1e-05	< 1e-05	–
A6C G38U G40A A48G A52U G63C	< 1e-05	< 1e-05	–
G37U G38U G43A	< 1e-05	–	–
C50G A52U G63C	< 1e-05	< 1e-05	–
C8G C11U A36U	< 1e-05	< 1e-05	–
A22G A36G U56C C70G	< 1e-05	< 1e-05	–
G41U A52C U65A	< 1e-05	–	–
U30A U54C G63A	< 1e-05	–	–
C58G C68U C71G	5.51e-05 ± 2.4e-05	–	–
G7U C58G C61G	0.000789 ± 0.00019	–	–
G9A G29U G41A U45A U47G C50U C70U	< 1e-05	–	–

Variant	self-cleavage kobs at 640 uM GlcN6P (glucosamine-6-phosphate [1]) [s⁻¹]	self-cleavage kobs at 2500 uM GlcN6P (glucosamine-6-phosphate [2]) [s⁻¹]	self-cleavage kobs at 10000 uM GlcN6P (glucosamine-6-phosphate [3]) [s⁻¹]
C8U A33G G38A G59A C70G	5.19e-05 ± 1.9e-05	–	–
G9U G29U C34A G41U U57G G59A	< 1e-05	< 1e-05	–
U30A A53U C67G	6.37e-05 ± 2.6e-05	4.68e-05 ± 2.2e-05	0.000271 ± 6.3e-05
A12G U55G G62C	< 1e-05	–	< 1e-05
A12C A42U C68U	5.31e-05 ± 1.5e-05	0.000111 ± 2.6e-05	–
A1G A12U A64C	0.000103 ± 3.6e-05	0.000485 ± 0.00019	0.000643 ± 0.00015
G40C G43C C70A	< 1e-05	< 1e-05	–
G29A G38A G43C	< 1e-05	–	–
C11G U49A C71G	8.96e-05 ± 3.1e-05	–	–
U45G U49G	0.000102 ± 1.6e-05	0.000422 ± 8.4e-05	–
A33U G41C G51U U55A	< 1e-05	–	< 1e-05
A39U A48G G60C	< 1e-05	< 1e-05	–
U45A U57G G62A	< 1e-05	< 1e-05	–
G43U U47C G63U	< 1e-05	< 1e-05	–
C16U A39G A53C C68A	< 1e-05	–	–
G43U G51C G59C G62U C68U	< 1e-05	–	–
A42G A52U	5.23e-05 ± 1.2e-05	0.000479 ± 9.3e-05	0.000467 ± 9.8e-05
G32C G35C U47C C58U	< 1e-05	–	–
A12U U56A C58G	0.000155 ± 2.6e-05	0.000526 ± 9e-05	–
G37A A64U C71U	< 1e-05	< 1e-05	–
C34G G35A G63U	< 1e-05	–	< 1e-05

Variant	self-cleavage kobs at 640 uM GlcN6P (glucosamine-6-phosphate [1]) [s⁻¹]	self-cleavage kobs at 2500 uM GlcN6P (glucosamine-6-phosphate [2]) [s⁻¹]	self-cleavage kobs at 10000 uM GlcN6P (glucosamine-6-phosphate [3]) [s⁻¹]
A12C U31A U57A	4.6e-05 ± 2.3e-05	4.93e-05 ± 1.6e-05	–
G9U C34G C58U	< 1e-05	< 1e-05	–
A14U A36C G44A U55C C61A	< 1e-05	–	–
G32A A39G U46C	0.000174 ± 4.5e-05	0.000355 ± 0.00011	–
A14C U45A U56C	8.23e-05 ± 3.9e-05	0.000421 ± 0.00012	–
A14C U47C	0.000137 ± 2.2e-05	–	0.00052 ± 0.00018
A15C G29U U30A	0.000117 ± 2.7e-05	0.000332 ± 0.00011	–
U30A U46G C67U	0.000117 ± 3.4e-05	0.00027 ± 0.0001	–
G32U G35U G40A U55A	< 1e-05	–	–
G38U A48U C61G C71U	< 1e-05	–	–
A12C A64C G66C	< 1e-05	–	< 1e-05
G60A C61U C70U	< 1e-05	< 1e-05	–
A52G U56G C67A U69C	9.46e-05 ± 1.8e-05	0.000192 ± 5.3e-05	0.000295 ± 8.2e-05
U45G U46C G59U U65G U69G	< 1e-05	< 1e-05	–
C8A A53U C58A G59U	< 1e-05	–	–
C11U A12C G13U G38U U56A C71U	< 1e-05	< 1e-05	–
C19U U46A	0.0011 ± 0.00031	0.0021 ± 0.00075	–
G13U U31C G43C	< 1e-05	< 1e-05	< 1e-05
A12G A14U A15U C71A	6.44e-05 ± 1.9e-05	7.44e-05 ± 1.8e-05	–
